According to patent publication US20120238493A1 (INDIANA UNIVERSITY RESEARCH AND TECHNOLOGY, published 2012):
Where two headings read alike, the source gives them in different places. *1 amine or outer side, *2 acyl side, *3 side chain or, on linkers, in order; H or OH if unused. Where no end group is shown, it is not given here. Side-chain parts run from the residue outwards. [ ]: non-standard residue; d: D form. The star is where a group is joined. γGlu = O=C(O)[C@H](CCC(=O)[*:2])N[*:1]; Palmitoyl = CCCCCCCCCCCCCCCC(=O)*; Suc = O=C(CCC(=O)[*:2])[*:1]; Aib = CC(C)(N)C(=O)O; βAla = NCCC(=O)O

T1: GIP receptor (UniProt P48546 22-466, limits assumed)
T1 sequence (looked up): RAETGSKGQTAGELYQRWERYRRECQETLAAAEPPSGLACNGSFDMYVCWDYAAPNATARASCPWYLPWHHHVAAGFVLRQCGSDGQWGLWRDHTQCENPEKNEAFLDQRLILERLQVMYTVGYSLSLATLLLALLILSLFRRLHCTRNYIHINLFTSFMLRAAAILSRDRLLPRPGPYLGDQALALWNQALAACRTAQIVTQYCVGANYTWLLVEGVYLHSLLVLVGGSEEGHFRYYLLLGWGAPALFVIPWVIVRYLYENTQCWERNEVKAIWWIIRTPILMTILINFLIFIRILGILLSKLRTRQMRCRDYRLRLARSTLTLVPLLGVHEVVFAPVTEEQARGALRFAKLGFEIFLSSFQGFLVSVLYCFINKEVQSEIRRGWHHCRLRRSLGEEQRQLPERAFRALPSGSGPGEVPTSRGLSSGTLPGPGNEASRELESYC

B1: Analog No. 37: Aib2, K10acyl, E16, Aib20, E21, L27, D28 (SEQ ID NO: 31) (peptide)
peptide: H[Aib]QGTFTSDK([γGlu-Palmitoyl])SKYLDERRA[Aib]EFVQWLLDT-NH2
modifications: N-terminus assumed
SMILES: CCCCCCCCCCCCCCCC(=O)N[C@@H](CCC(=O)NCCCC[C@H](NC(=O)[C@H](CC(=O)O)NC(=O)[C@H](CO)NC(=O)[C@@H](NC(=O)[C@H](Cc1ccccc1)NC(=O)[C@@H](NC(=O)CNC(=O)[C@H](CCC(N)=O)NC(=O)C(C)(C)NC(=O)[C@@H](N)Cc1c[nH]cn1)[C@@H](C)O)[C@@H](C)O)C(=O)N[C@@H](CO)C(=O)N[C@@H](CCCCN)C(=O)N[C@@H](Cc1ccc(O)cc1)C(=O)N[C@@H](CC(C)C)C(=O)N[C@@H](CC(=O)O)C(=O)N[C@@H](CCC(=O)O)C(=O)N[C@@H](CCCNC(=N)N)C(=O)N[C@@H](CCCNC(=N)N)C(=O)N[C@@H](C)C(=O)NC(C)(C)C(=O)N[C@@H](CCC(=O)O)C(=O)N[C@@H](Cc1ccccc1)C(=O)N[C@H](C(=O)N[C@@H](CCC(N)=O)C(=O)N[C@@H](Cc1c[nH]c2ccccc12)C(=O)N[C@@H](CC(C)C)C(=O)N[C@@H](CC(C)C)C(=O)N[C@@H](CC(=O)O)C(=O)N[C@H](C(N)=O)[C@@H](C)O)C(C)C)C(=O)O
B2: peptide of SEQ ID NO: 90 (peptide)
peptide: H[Aib]QGTFTSDK([γGlu-γGlu-Palmitoyl])SKYLDERAAQDFVQWLLDGGPSSGAPPPS-NH2
modifications: N-terminus assumed
SMILES: CCCCCCCCCCCCCCCC(=O)N[C@@H](CCC(=O)N[C@@H](CCC(=O)NCCCC[C@H](NC(=O)[C@H](CC(=O)O)NC(=O)[C@H](CO)NC(=O)[C@@H](NC(=O)[C@H](Cc1ccccc1)NC(=O)[C@@H](NC(=O)CNC(=O)[C@H](CCC(N)=O)NC(=O)C(C)(C)NC(=O)[C@@H](N)Cc1c[nH]cn1)[C@@H](C)O)[C@@H](C)O)C(=O)N[C@@H](CO)C(=O)N[C@@H](CCCCN)C(=O)N[C@@H](Cc1ccc(O)cc1)C(=O)N[C@@H](CC(C)C)C(=O)N[C@@H](CC(=O)O)C(=O)N[C@@H](CCC(=O)O)C(=O)N[C@@H](CCCNC(=N)N)C(=O)N[C@@H](C)C(=O)N[C@@H](C)C(=O)N[C@@H](CCC(N)=O)C(=O)N[C@@H](CC(=O)O)C(=O)N[C@@H](Cc1ccccc1)C(=O)N[C@H](C(=O)N[C@@H](CCC(N)=O)C(=O)N[C@@H](Cc1c[nH]c2ccccc12)C(=O)N[C@@H](CC(C)C)C(=O)N[C@@H](CC(C)C)C(=O)N[C@@H](CC(=O)O)C(=O)NCC(=O)NCC(=O)N1CCC[C@H]1C(=O)N[C@@H](CO)C(=O)N[C@@H](CO)C(=O)NCC(=O)N[C@@H](C)C(=O)N1CCC[C@H]1C(=O)N1CCC[C@H]1C(=O)N1CCC[C@H]1C(=O)N[C@@H](CO)C(N)=O)C(C)C)C(=O)O)C(=O)O
B3: peptide of SEQ ID NO: 91 (peptide)
peptide: Y[Aib]QGTFTSDK([γGlu-γGlu-Palmitoyl])SIYLDKQAA[Aib]EFVNWLLDGGPSSGAPPPS-NH2
modifications: N-terminus assumed
SMILES: CCCCCCCCCCCCCCCC(=O)N[C@@H](CCC(=O)N[C@@H](CCC(=O)NCCCC[C@H](NC(=O)[C@H](CC(=O)O)NC(=O)[C@H](CO)NC(=O)[C@@H](NC(=O)[C@H](Cc1ccccc1)NC(=O)[C@@H](NC(=O)CNC(=O)[C@H](CCC(N)=O)NC(=O)C(C)(C)NC(=O)[C@@H](N)Cc1ccc(O)cc1)[C@@H](C)O)[C@@H](C)O)C(=O)N[C@@H](CO)C(=O)N[C@H](C(=O)N[C@@H](Cc1ccc(O)cc1)C(=O)N[C@@H](CC(C)C)C(=O)N[C@@H](CC(=O)O)C(=O)N[C@@H](CCCCN)C(=O)N[C@@H](CCC(N)=O)C(=O)N[C@@H](C)C(=O)N[C@@H](C)C(=O)NC(C)(C)C(=O)N[C@@H](CCC(=O)O)C(=O)N[C@@H](Cc1ccccc1)C(=O)N[C@H](C(=O)N[C@@H](CC(N)=O)C(=O)N[C@@H](Cc1c[nH]c2ccccc12)C(=O)N[C@@H](CC(C)C)C(=O)N[C@@H](CC(C)C)C(=O)N[C@@H](CC(=O)O)C(=O)NCC(=O)NCC(=O)N1CCC[C@H]1C(=O)N[C@@H](CO)C(=O)N[C@@H](CO)C(=O)NCC(=O)N[C@@H](C)C(=O)N1CCC[C@H]1C(=O)N1CCC[C@H]1C(=O)N1CCC[C@H]1C(=O)N[C@@H](CO)C(N)=O)C(C)C)[C@@H](C)CC)C(=O)O)C(=O)O
B4: peptide of SEQ ID NO: 92 (peptide)
peptide: Y[Aib]QGTFTSDK([γGlu-γGlu-Palmitoyl])SIYLDKQAA[Aib]EFVNWLLDT-NH2
modifications: N-terminus assumed
SMILES: CCCCCCCCCCCCCCCC(=O)N[C@@H](CCC(=O)N[C@@H](CCC(=O)NCCCC[C@H](NC(=O)[C@H](CC(=O)O)NC(=O)[C@H](CO)NC(=O)[C@@H](NC(=O)[C@H](Cc1ccccc1)NC(=O)[C@@H](NC(=O)CNC(=O)[C@H](CCC(N)=O)NC(=O)C(C)(C)NC(=O)[C@@H](N)Cc1ccc(O)cc1)[C@@H](C)O)[C@@H](C)O)C(=O)N[C@@H](CO)C(=O)N[C@H](C(=O)N[C@@H](Cc1ccc(O)cc1)C(=O)N[C@@H](CC(C)C)C(=O)N[C@@H](CC(=O)O)C(=O)N[C@@H](CCCCN)C(=O)N[C@@H](CCC(N)=O)C(=O)N[C@@H](C)C(=O)N[C@@H](C)C(=O)NC(C)(C)C(=O)N[C@@H](CCC(=O)O)C(=O)N[C@@H](Cc1ccccc1)C(=O)N[C@H](C(=O)N[C@@H](CC(N)=O)C(=O)N[C@@H](Cc1c[nH]c2ccccc12)C(=O)N[C@@H](CC(C)C)C(=O)N[C@@H](CC(C)C)C(=O)N[C@@H](CC(=O)O)C(=O)N[C@H](C(N)=O)[C@@H](C)O)C(C)C)[C@@H](C)CC)C(=O)O)C(=O)O

Assays:
Assay in all cases: cell-based or functional assay
GLP-1 receptor [1] = biological target: T2, GLP-1 receptor (UniProt P43220 24-463, limits assumed)
GIP receptor [2] = biological target: T1, GIP receptor
glucagon receptor [3] = biological target: T3, glucagon receptor (UniProt P47871 26-477, limits assumed)
GLP-1 receptor [4] = biological target: T2, GLP-1 receptor; remark: listed apart in the source
GIP receptor [5] = biological target: T1, GIP receptor; remark: listed apart in the source
glucagon receptor [6] = biological target: T3, glucagon receptor; remark: listed apart in the source
GLP-1 receptor [7] = biological target: T2, GLP-1 receptor; remark: listed apart in the source
glucagon receptor [8] = biological target: T3, glucagon receptor; remark: listed apart in the source
GLP-1 receptor [9] = biological target: T2, GLP-1 receptor; remark: listed apart in the source
Target sequence in this assay (P43220 24-463 limits assumed): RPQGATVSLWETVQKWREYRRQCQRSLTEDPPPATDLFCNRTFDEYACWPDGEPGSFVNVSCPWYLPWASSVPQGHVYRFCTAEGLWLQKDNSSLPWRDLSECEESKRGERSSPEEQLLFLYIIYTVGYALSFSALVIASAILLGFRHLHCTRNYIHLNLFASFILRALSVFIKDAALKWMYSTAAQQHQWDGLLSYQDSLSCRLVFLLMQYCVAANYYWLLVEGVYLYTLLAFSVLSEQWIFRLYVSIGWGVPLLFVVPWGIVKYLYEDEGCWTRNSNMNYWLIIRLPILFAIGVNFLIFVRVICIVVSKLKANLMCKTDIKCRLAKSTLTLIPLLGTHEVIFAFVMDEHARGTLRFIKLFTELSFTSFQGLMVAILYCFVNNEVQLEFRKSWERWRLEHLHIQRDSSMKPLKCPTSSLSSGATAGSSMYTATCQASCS

GIP receptor [10] = biological target: T1, GIP receptor; remark: listed apart in the source
glucagon receptor [11] = biological target: T3, glucagon receptor; remark: listed apart in the source

T3 sequence (P47871 26-477 limits assumed): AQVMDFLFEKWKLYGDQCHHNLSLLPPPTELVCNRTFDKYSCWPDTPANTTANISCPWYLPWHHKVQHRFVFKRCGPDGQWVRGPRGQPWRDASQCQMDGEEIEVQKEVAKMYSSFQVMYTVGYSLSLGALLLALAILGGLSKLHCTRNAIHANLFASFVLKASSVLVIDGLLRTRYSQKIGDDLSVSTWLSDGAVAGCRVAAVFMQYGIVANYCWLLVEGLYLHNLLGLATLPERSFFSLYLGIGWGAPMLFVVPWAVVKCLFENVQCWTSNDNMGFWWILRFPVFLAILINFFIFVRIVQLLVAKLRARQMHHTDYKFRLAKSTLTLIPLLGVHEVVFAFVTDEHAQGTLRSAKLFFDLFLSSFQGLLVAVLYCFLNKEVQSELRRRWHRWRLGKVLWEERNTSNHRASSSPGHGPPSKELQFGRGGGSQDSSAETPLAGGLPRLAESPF

| Binder | EC50 (cAMP reporter) (GLP-1 receptor [4]) | EC50 (cAMP reporter) (GIP receptor [5]) | EC50 (cAMP reporter) (glucagon receptor [6]) | EC50 (cAMP reporter) (GLP-1 receptor [9]) | EC50 (cAMP reporter) (GIP receptor [10]) | EC50 (cAMP reporter) (glucagon receptor [11]) | other results |
| --- | --- | --- | --- | --- | --- | --- | --- |
| B1 | 4.4 pM | 8 pM | 8 pM | – | – | – | EC50 (cAMP reporter) (GLP-1 receptor [1]): 4.4 pM; EC50 (cAMP reporter) (GIP receptor [2]): 8 pM; EC50 (cAMP reporter) (glucagon receptor [3]): 8 pM |
| H[Aib]QGTFTSDYSKYLDERAAQDFVQWLLDGGPSSGAPPPSY(Palmitoyl)G-NH2 (also: Y40 O-2palmitic acid, exact structure not given here) [peptide of SEQ ID NO: 212] | – | – | – | – | – | – | EC50 (cAMP reporter) (GLP-1 receptor [7]): 4 pM; EC50 (cAMP reporter) (glucagon receptor [8]): 7 pM |
| B2 | 2.7 pM | 17 pM | 5.6 pM | – | – | – | – |
| YXEGTFTSDXSIYLDKQAAXEFVNWLLAGGPSSGAPPPS (aib at 2 and 20; 4-aminoPhe at 10 acylated F(4-aminoγEγEC16); NH2) [peptide of SEQ ID NO: 143] | – | – | – | 2 pM | 3 pM | 165 pM | – |
| Y[Aib]EGTFTSDYSIYLDKQAA[Aib]EFVNWLLAGGPSSGAPPPSK([βAla-Suc-Palmitoyl])G-NH2 [peptide of SEQ ID NO: 141] | – | – | – | 1 pM | 2 pM | 58 pM | – |
| B3 | 8 pM | 5 pM | 73 pM | – | – | – | – |
| Y[Aib]EGTFTSDYSIYLDKQAA[Aib]EFVNWLLAGGPSSGAPPPSK([Suc-Palmitoyl])G-NH2 [peptide of SEQ ID NO: 140] | – | – | – | 1 pM | 1 pM | 77 pM | – |
| Y[Aib]EGTFTSDYSIYLDKQAA[Aib]EFVNWLLAGGPSSGAPPPSK([Suc-C18])G-NH2 [peptide of SEQ ID NO: 142] | – | – | – | 4 pM | 1 pM | 121 pM | – |
| Y[Aib]EGTFTSDYSIYLDKQAA[Aib]EFVNWLLAGGPSSGAPPPSK(Palmitoyl)G-NH2 [peptide of SEQ ID NO: 139] | – | – | – | 5 pM | 1 pM | 203 pM | – |
| B4 | 3.1 pM | 21 pM | 10.5 pM | – | – | – | – |
